From article PMC3377380 come the findings set out here.

This assay has as its target GST-Obsc_(6316–6345) (Rattus norvegicus). The assay is described as follows: SPR. In general terms: SPR reads the build-up and loss of mass on a sensor chip optically.

For “sAnk1-I102F (MBP fusion) (domain or fragment)”, the fold slower dissociation than wild type was 3 times.
